Earlier results on 1 substance are cited in paper PMC9836287.

The target of this data set is CEP250 (Homo sapiens) (UniProt Q9BV73).
Sequence of UniProt Q9BV73 (Q9BV73 whole entry): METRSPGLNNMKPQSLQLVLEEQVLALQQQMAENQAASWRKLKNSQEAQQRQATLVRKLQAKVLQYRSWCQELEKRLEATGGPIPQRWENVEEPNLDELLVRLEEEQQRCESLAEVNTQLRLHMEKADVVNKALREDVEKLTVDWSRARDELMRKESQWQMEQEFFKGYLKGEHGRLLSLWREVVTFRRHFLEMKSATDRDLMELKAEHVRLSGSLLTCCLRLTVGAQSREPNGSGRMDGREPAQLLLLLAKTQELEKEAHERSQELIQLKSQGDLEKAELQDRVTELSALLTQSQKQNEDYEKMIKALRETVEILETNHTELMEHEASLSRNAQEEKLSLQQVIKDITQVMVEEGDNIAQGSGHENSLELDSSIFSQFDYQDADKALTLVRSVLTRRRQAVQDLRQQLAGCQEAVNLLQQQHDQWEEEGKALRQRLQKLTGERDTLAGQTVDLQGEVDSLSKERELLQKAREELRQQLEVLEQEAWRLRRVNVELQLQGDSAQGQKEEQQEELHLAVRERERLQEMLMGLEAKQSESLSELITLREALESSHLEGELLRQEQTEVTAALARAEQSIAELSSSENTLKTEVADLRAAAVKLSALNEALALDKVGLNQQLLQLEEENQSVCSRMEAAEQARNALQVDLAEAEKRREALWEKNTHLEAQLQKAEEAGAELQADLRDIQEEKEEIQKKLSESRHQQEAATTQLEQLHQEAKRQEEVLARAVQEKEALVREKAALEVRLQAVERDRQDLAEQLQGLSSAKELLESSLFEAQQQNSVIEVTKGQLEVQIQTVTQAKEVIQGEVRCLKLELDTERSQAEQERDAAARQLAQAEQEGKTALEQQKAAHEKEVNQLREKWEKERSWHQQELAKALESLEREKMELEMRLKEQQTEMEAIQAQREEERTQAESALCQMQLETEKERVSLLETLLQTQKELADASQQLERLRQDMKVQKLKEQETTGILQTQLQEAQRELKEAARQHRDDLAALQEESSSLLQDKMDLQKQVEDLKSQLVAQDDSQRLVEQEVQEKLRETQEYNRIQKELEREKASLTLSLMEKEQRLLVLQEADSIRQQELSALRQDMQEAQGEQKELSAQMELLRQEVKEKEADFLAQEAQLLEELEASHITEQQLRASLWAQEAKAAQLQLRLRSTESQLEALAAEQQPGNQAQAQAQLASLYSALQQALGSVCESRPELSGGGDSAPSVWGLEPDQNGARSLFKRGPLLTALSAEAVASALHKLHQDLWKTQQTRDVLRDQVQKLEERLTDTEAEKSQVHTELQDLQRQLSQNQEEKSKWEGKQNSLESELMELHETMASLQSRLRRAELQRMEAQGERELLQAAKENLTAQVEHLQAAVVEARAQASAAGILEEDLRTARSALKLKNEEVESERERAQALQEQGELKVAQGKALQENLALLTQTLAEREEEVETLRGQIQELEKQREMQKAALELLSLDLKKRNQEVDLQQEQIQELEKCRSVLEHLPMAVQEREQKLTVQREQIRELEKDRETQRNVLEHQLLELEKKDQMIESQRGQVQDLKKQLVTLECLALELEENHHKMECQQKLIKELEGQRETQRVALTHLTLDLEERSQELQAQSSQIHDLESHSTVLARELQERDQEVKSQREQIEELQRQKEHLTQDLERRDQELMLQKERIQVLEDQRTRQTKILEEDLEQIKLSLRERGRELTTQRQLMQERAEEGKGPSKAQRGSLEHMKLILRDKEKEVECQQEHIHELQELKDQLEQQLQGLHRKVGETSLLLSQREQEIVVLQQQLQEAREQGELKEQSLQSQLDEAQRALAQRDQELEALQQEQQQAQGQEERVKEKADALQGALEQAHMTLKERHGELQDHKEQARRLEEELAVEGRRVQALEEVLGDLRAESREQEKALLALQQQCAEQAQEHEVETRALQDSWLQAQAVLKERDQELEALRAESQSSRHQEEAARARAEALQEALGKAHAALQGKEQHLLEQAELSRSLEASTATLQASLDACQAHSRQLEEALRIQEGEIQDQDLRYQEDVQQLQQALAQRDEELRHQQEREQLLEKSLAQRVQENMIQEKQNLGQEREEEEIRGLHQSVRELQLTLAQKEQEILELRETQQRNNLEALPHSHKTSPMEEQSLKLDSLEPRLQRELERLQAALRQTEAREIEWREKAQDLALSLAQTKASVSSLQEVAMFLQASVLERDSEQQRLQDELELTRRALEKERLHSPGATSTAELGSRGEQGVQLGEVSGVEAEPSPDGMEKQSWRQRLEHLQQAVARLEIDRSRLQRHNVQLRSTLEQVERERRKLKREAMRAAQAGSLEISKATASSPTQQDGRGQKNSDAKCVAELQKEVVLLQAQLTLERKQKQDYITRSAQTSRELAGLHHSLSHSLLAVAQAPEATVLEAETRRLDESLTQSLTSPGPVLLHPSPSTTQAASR

Turning to FKBP12 (from UniProt P62942), the Kd was 40 nM.
